From patent publication US8084228B2, “Nogo-B receptor antagonists” (Yale University, priority 2006, dated 2011)

T1: NgBR (Homo sapiens, UniProt Q96E22)
T1 sequence (Q96E22 1-293): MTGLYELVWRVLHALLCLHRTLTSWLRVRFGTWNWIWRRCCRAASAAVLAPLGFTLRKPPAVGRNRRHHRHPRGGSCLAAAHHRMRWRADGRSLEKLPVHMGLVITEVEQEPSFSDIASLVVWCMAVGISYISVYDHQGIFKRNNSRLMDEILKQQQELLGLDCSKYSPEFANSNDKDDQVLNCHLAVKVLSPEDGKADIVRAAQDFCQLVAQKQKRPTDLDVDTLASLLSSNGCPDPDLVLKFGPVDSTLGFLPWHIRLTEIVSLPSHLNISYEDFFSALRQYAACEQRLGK

T2: Nogo receptor (Homo sapiens, UniProt Q9BZR6)
T2 construct: expressed in transfected cells; host or cells: COS-7
T2 sequence (Q9BZR6 27-447): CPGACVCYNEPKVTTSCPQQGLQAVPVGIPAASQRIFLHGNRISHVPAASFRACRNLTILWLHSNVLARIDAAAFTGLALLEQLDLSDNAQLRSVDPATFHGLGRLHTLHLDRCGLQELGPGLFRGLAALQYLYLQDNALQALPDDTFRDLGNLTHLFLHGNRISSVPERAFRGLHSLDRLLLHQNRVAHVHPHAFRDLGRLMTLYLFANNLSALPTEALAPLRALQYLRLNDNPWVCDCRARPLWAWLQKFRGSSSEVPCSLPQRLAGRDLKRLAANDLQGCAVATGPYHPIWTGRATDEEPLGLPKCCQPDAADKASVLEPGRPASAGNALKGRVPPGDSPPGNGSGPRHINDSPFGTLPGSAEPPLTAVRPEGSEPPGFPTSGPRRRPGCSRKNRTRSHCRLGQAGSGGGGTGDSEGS

B1: AP-Nogo-B (amino acids 1-180): AP fusion with amino acids 1-180 of Nogo-B (protein)
chain: MEDLDQSPLVSSSDSPPRPQPAFKYQFVREPEDEEEEEEEEEEDEDEDLEELEVLERKPAAGLSAAPVPTAPAAGAPLMDFGNDFVPPAPRGPLPAAPPVAPERQPSWDPSPVSSTVPAPSPLSAAAVSPSKLPEDDEPPARPPPPPPASVSPQAEPVWTPPAPAPAAPPSTPAAPKRRG
modifications: left off: large carriers
notes: AP fusion with amino acids 1-180 of Nogo-B
B2: AP-Nogo-A (59-172): AP fusion with biologically active domain 59-172 of Nogo-A (protein)
chain: PAAGLSAAPVPTAPAAGAPLMDFGNDFVPPAPRGPLPAAPPVAPERQPSWDPSPVSSTVPAPSPLSAAAVSPSKLPEDDEPPARPPPPPPASVSPQAEPVWTPPAPAPAAPPST
modifications: left off: large carriers
B3: Ap-Nogo-B (61-200): AP fusion with amino acids 61-200 of Nogo-B (protein)
chain: AGLSAAPVPTAPAAGAPLMDFGNDFVPPAPRGPLPAAPPVAPERQPSWDPSPVSSTVPAPSPLSAAAVSPSKLPEDDEPPARPPPPPPASVSPQAEPVWTPPAPAPAAPPSTPAAPKRRGSSGSVVVDLLYWRDIKKTGV
modifications: left off: large carriers
notes: AP fusion with amino acids 61-200 of Nogo-B
B4: AP-Nogo-66: AP fusion of Nogo-66, a 66 amino acid residue loop in the RHD (protein)
chain: RIYKGVIQAIQKSDEGHPFRAYLESEVAISEELVQKYSNSALGHVNCTIKELRRLFLVDDLVDSLK
modifications: left off: large carriers
notes: AP fusion of Nogo-66, a 66 amino acid residue loop in the RHD

Columns and labels:
Endothelial cells = experiment: Am-Nogo-B-induced migration of endothelial cells, inhibition by NgBR ectodomain peptides or fusion protein; assay type: cell-based; conditions: peptide 200 nM, Am-Nogo-B 100 nM
Procedure: (§1) Cell migration was examined in modified Boyden chambers using 10 nM each of purified recombinant AP, AP fusion of Nogo-66 (AP-Nogo-66) or Am-Nogo-B. The transwell inserts (Costar transwell inserts; Corning) were coated with a solution of 0.1% gelatin (Sigma) in PBS at 4° C. overnight and then air-dried. VEGF at 50 ng/mL (1.1 nM) or recombinant Am-Nogo-B at various concentrations dissolved in medium 199 containing 0.1% BSA was added in the bottom chamber of the Boyden apparatus. HUVEC (200,000 cells) suspended in a 100 μL aliquot of medium 199 containing 0.1% BSA was added to the upper chamber. After 5 hours incubation, cells on both sides of the membrane were fixed and stained with a Diff-Quik staining kit (Baxter Healthcare, Miami, Fla.). The average number of cells from five randomly chosen high-power (×400) fields on the lower side of the membrane was counted.
Endothelial cells were incubated with vehicle (control) of one of peptides P1-P4 (200 nM each) in the presence of Am-Nogo-B (100 nM).
Similarly, treatment of endothelial cells with mFc-ecto, but not mFc, blocked Am-Nogo-B-induced cell migration (FIG. 35).

NgBR mRNA = NgBR mRNA by quantitative PCR after siRNA transfection of HUVEC; assay type: cell-based, human; conditions: 72 hours after transfection, normalized to 18S
Procedure: (§2) NgBR siRNA oligonucleotides (SEQ ID NOS:2-5) with 3′ dTdT overhangs were synthesized by Qiagen. Control siRNA in experiments refers to a nonsilencing (NS) siRNA (NS forward: UUCUCCGAACGUGUCACGU, SEQ ID NO:7; NS reverse: ACGUGACACGUUCGGAGAA, SEQ ID NO:8) designed and synthesized by Qiagen. HUVEC and CHO stable cell lines were transfected with siRNA by using Oligofectamine. Quantification of NgBR mRNA and protein, ligand binding assay, and migration assay were performed at 72 hours after transfection.
Total RNA from cells was isolated by using the RNeasy kit (Qiagen). Reverse transcription was then performed by using 100 ng of RNA and the Superscript First-Strand Synthesis System kit (Invitrogen). Real-time PCR analysis was done with the iCycler iQ detection system using the iQ SYBR green Supermix kit (Bio-Rad). The NgBR mRNA level was normalized by housekeeping gene 18S. The following primers were used for NgBR: forward, 5′-[…]-3′ (SEQ ID NO:9) and reverse, 5′-[…]-3′ (SEQ ID NO:10). The following primers were used for 18S: forward, 5′-[…]-3′ (SEQ ID NO:11) and reverse, 5′-[…]-3′ (SEQ ID NO:12).

HUVEC [1] = experiment: AP-Am-Nogo-B binding to HUVEC after siRNA transfection; assay type: cell-based, human; conditions: 72 hours after siRNA transfection
Procedure: (§3) To detect AP-Am-Nogo-B binding, cultures were washed with Hanks' balanced salt solution (HBSS) containing 20 mM HEPES, pH 7.5, and 1 mg/mL BSA (HBH). The plates were then incubated with AP-Am-Nogo-B in DMEM containing 20 mM Hepes, pH 7.5, and 1 mg/mL BSA for 2 hours at 4° C. The bound AP-Am-Nogo-B was detected by using the Blue Substrate kit (Vector Laboratories). The blue staining was examined by using the ODYSSEY Infrared Imaging System (Li-Cor, Lincoln, Nebr.) and confirmed by microscopy. Alternatively, the bound AP-Am-Nogo-B was extracted with Triton X-100, and AP activity was colorimetrically quantified by using p-nitrophenyl phosphate (Sigma) as substrate after heat inactivation of endogenous AP. Non-specific binding was determined by measuring binding in the presence of a 100-fold molar excess of recombinant Am-Nogo-B lacking the AP fusion protein. Specific binding was determined by subtracting the non-specific binding from total binding. For determination of apparent Kd, the binding of AP-Am-Nogo-B was measured in triplicate as described above and the Kd value was quantified by using the Scatchard plot program of GraphPad PRISM (one-site binding, linear regression) using the ratio of bound ligand to free ligand as the y axis and bound ligand (pM) as the x axis.
as §2

HUVEC [2] = experiment: Binding of AP fusion proteins to the surface of HUVEC; set-up: species or system human; conditions: HUVEC (FIGS. 12, 15)
Procedure: as §3

NgBR [3] = target: T1, NgBR; experiment: AP fusion protein binding to CHO cells expressing NgBR; set-up: an isolated cDNA encoding NgBR is 2,636 base pairs encoding an open reading frame of 293 amino acids; expressed in transfected cells; conditions: for surface binding of AP fusion domains to NgBR-expressing cells: CHO cells expressing NgBR (FIGS. 11, 14)
Procedure: as §3
A recombinant AP-Am-Nogo-B fusion protein was used to screen a cDNA expression library from human heart (500,000 independent clones) transfected into COS or CHO cells using Lipofectamine 2000 (Invitrogen). COS-7 cells were cultured in high-glucose DMEM with 10% FBS. CHO cells were cultured in MEM-α with 5% FBS.

HUVEC [4] = experiment: HUVEC migration in modified Boyden chambers; assay type: cell-based, human; conditions: 10 nM purified recombinant protein, 5 hours
Procedure: The migratory response of human umbilical vein endothelial cells (HUVEC) in response to a gradient of recombinant, purified alkaline phosphatase (AP) fusion protein expressing Am-Nogo-B or a recombinant purified Am-Nogo-B was examined. HUVEC were cultured in M199 with 20% FBS and endothelial cell growth supplement (ECGS).
as §1

Nogo receptor = target: T2, Nogo receptor; experiment: AP fusion protein binding to COS cells transfected with cDNA encoding the Nogo receptor; conditions: COS cells (FIG. 6)
Procedure: as §3
(§4) For expression cloning of Am-Nogo-B receptor, pools of 5,000 arrayed clones from a human heart cDNA library (OriGene Technologies, Rockville, Md.) were transfected into COS-7 cells, and AP-Am-Nogo-B binding was assessed by using AP versus AP-Am-Nogo-B binding and detection of the AP product by near-infrared cell imaging (Li-Cor, Lincoln, Nebr.) or AP activity assays.

NgBR [5] = target: T1, NgBR; experiment: AP fusion protein binding to COS cells transfected with the isolated NgBR cDNA; set-up: an isolated cDNA encoding NgBR is 2,636 base pairs encoding an open reading frame of 293 amino acids; expressed in transfected cells; host or cells: COS-7 (A4); conditions: COS cells (FIG. 6)
Procedure: as §3, §4
Single NgBR cDNA clones were isolated by sib selection and sequenced. […] The HA-tagged NgBR was immunoisolated with anti-HA immunobeads (Roche, Indianapolis, Ind.) and associated proteins analyzed by Western blotting. For the Western blots, expression of NgBR-HA was detected by using anti-HA (Roche) and NgBR (Imgenex), respectively, and beta-actin (Sigma) or Hsp90 (BD Biosciences-Pharmingen) was used to control for loading.

Molecule	Am-Nogo-B-induced migration of endothelial cells in presence of peptide (Endothelial cells)	surface binding of AP fusion domains to HUVEC (HUVEC [2])	surface binding of AP fusion domains to NgBR-expressing cells (NgBR [3])	also measured
scrambled version of P2: scrambled P2 control PGRHLKPSRFNARLHGPCRVLRAHGPLTRG (SEQ ID NO: 17) (scrambled version of SEQ ID NO 14) [reference compound]	did not block	–	–	–
P2: NgBR ectodomain peptide LAPLGFTLRKPPAVGRNRRHHRHPRGGSCL (SEQ ID NO: 14) (listed as Homo sapiens)	effectively reduced	–	–	–
nonsilencing RNA: nonsilencing (NS) control siRNA by Qiagen; forward UUCUCCGAACGUGUCACGU (SEQ ID NO:7) (antisense ACGUGACACGUUCGGAGAA; listed as RNA, chemistry not given here) [reference compound]	–	–	–	level of NgBR mRNA (NgBR mRNA): not; binding of AP-Am-Nogo-B to HUVEC (HUVEC [1]): not
P4: NgBR ectodomain peptide ADGRSLEKLPVHMGLVITEVEQEPSFSD (SEQ ID NO: 16) (listed as Homo sapiens)	to a lesser extent	–	–	–
PP2: truncated version of P2, TLRKPPAVGRNRRHHRHPRG (SEQ ID NO: 18) (listed as Homo sapiens)	nearly identical to that of P2	–	–	–
B1	–	did not bind	did not bind	–
B2	–	did not bind	did not bind	–
B3	–	did	did	–
B4	–	did not bind	did not bind	HUVEC migration (HUVEC [4]): does not promote; binding to COS cells transfected with Nogo receptor cDNA (Nogo receptor): selectively bind; binding to CHO cells stably expressing NgBR (NgBR [3]; increasing concentrations, 2 hours at 4° C.): not; binding to COS cells transfected with the isolated NgBR cDNA (NgBR [5]): not
